Paper PMC11672978, “Assessing the Impact of the Leader Peptide in Protease Inhibition by the Microviridin Family of RiPPs” (Biomedicines, 2024)

Tests used:
elastase [1] = details: mature natural product without leader peptide; read-out: previously reported IC50 for elastase inhibition; cited from earlier work
From the text: Although, the IC50 value we measured is certainly an overestimation of the actual IC50 as it is less than half the concentration of the elastase used in the assay.

Elastase [2] = target: Elastase
Elastase [3] = target: Elastase; remark: listed apart in the source

Substance: microviridin B
- IC50 (elastase [1]): 25 nM

Substance: MdnA Δ2 (bicyclic microviridin B precursor peptide modified by MdnC only, leader peptide present, N-terminal His-tag)
- IC50 of inhibition of the hydrolysis of the fluorogenic substrate MeOSuc-AAPV-AMC by elastase (20 nM elastase, 10 nM-10,000 nM MdnA Δ2, 100 mM HEPES pH 8.0, 10% DMSO, room temperature) (Elastase [2]): 840 nM

Substance: MdnA Δ3 (tricyclic, fully modified microviridin B precursor peptide with the leader peptide present, N-terminal His-tag)
- IC50 of inhibition of the hydrolysis of the fluorogenic substrate MeOSuc-AAPV-AMC by elastase (20 nM elastase, 0.1 nM-100 nM MdnA Δ3, 100 mM HEPES pH 8.0, 10% DMSO, room temperature) (Elastase [3]): 8.3 nM
